Results published in patent JP2011160681A (dated 2011).

Assays:
Test in all cases: ELISA, antigen coated on the plate
[1] = molecular target: HAc peptide (Influenza A virus)
[2] = molecular target: Bovine serum albumin (bovine, UniProt P02769 25-607)
[3] = molecular target: HSA (UniProt P02768 25-609)
[4] = molecular target: Human hemoglobin (human, UniProt P69905 2-142; P68871 2-147)
[5] = molecular target: T1, TP41-1 peptide (HIV-1)
T1 peptide: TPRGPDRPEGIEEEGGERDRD

Bovine serum albumin, sequence (P02769 25-607 limits assumed): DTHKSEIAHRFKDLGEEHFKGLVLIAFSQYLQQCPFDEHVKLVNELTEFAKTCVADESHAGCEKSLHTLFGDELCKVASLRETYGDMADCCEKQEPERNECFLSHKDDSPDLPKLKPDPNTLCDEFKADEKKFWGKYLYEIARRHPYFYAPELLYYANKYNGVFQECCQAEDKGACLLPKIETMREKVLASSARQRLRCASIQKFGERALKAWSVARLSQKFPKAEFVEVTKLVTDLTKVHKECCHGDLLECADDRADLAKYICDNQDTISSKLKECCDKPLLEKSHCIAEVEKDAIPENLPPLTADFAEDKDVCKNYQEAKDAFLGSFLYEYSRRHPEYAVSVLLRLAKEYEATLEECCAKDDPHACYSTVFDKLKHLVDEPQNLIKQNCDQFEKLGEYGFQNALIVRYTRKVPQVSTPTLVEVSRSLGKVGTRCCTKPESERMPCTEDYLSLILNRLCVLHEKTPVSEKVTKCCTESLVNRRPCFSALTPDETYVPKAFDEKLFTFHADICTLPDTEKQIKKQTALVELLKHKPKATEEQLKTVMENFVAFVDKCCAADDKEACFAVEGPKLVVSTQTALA
HSA, sequence (P02768 25-609): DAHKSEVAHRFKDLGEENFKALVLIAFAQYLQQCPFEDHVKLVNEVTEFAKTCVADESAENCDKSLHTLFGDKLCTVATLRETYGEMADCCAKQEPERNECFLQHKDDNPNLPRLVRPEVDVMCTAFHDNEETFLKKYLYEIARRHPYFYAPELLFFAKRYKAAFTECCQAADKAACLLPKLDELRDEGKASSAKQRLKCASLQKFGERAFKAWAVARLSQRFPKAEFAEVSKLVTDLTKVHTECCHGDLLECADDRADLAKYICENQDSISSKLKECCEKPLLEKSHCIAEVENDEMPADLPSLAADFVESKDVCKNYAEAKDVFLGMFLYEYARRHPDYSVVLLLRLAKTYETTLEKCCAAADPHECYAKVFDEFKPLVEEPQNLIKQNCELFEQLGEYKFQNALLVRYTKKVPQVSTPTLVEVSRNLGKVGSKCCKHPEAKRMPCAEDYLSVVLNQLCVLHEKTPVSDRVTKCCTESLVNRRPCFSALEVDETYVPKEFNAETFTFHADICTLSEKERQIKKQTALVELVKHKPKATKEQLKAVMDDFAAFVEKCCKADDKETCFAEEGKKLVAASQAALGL
Human hemoglobin, sequence (P69905 2-142 limits assumed, chain 1 of 2): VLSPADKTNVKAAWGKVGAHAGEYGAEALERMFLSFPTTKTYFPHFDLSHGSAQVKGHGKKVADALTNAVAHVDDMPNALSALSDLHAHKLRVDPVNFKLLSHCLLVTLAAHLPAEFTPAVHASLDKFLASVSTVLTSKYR
Human hemoglobin, sequence (P68871 2-147 limits assumed, chain 2 of 2): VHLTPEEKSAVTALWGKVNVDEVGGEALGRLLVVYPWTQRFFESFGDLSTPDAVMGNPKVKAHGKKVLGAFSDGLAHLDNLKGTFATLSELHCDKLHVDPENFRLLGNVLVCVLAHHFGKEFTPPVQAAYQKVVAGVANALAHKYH

B1: InfA-15 monoclonal antibody (antibody, V domains shown)
VH: QVQLKESGPGLVAPSQSLSITCTVSGFSLTKSGLHWVRQPPGKGLEWLGVIWAGGSTDYNSALTSRLTITKDNSKSQIFFRLNSLQTADTAMYYCVRSTFLYAMDFWGQGTSVTVS
VL: DAVMTQTPLSLPVSLGDQASISCRSSPSLEHSNGNTYLNWYLQKPGQSPQLLIYRVSNRFSGVPDRFSGSGSGTDFTLKISRVEAEDLGVYFCLQVTHVPPTFGGGTKLEIKR
binding result [1]: no binding (tested: 4 μg/ml (coated antigen)) | binding result [2]: no binding (tested: 4 μg/ml (coated antigen)) | binding result [3]: no binding (tested: 4 μg/ml (coated antigen)) | binding result [4]: no binding (tested: 4 μg/ml (coated antigen)) | binding result [5]: no binding (tested: 4 μg/ml (coated antigen))
